Measured values as given in IntAct's records for PubMed 10861283.

B1: Merlin (Homo sapiens), P35240-3 (parent)
chain: MAGAIASRMSFSSLKRKQPKTFTVRIVTMDAEMEFNCEMKWKGKDLFDLVCRTLGLRETWFFGLQYTIKDTVAWLKMDKKVLDHDVSKEEPVTFHFLAKFYPENAEEELVQEITQHLFFLQVKKQILDEKIYCPPEASVLLASYAVQAKYGDYDPSVHKRGFLAQEELLPKRVINLYQMTPEMWEERITAWYAEHRGRARDEAEMEYLKIAQDLEMYGVNYFAIRNKKGTELLLGVDALGLHIYDPENRLTPKISFPWNEIRNISYSDKEFTIKPLDKKIDVFKFNSSKLRVNKLILQLCIGNHDLFMRRRKADSLEVQQMKAQAREEKARKQMERQRLAREKQMREEAERTRDELERRLLQMKEEATMANEALMRSEETADLLAEKAQITEEEAKLLAQKAAEAEQEMQRIKATAIRTEEEKRLMEQKVLEAEVLALKMAEESERRAKEADQLKQDLQEAREAERRAKQKLLEIATKPTYPPMNPIPAPLPPDIPSFNLIGDSLSFDFKDTDMKRLSMEIEKEKVEYMEKSKHLQEQLNELKTEIEALKLKERETALDILHNENSDRGGSSKHNTIKKPQAQGRRPICI

Key:
HGS, O14964-1 = variants of: B1; conditions: with HGS
HGS, O14964-2 = variants of: B1; conditions: with HGS
Chain of HGS, O14964-2 (O14964 other isoform, or with tags, fused parts or gaps): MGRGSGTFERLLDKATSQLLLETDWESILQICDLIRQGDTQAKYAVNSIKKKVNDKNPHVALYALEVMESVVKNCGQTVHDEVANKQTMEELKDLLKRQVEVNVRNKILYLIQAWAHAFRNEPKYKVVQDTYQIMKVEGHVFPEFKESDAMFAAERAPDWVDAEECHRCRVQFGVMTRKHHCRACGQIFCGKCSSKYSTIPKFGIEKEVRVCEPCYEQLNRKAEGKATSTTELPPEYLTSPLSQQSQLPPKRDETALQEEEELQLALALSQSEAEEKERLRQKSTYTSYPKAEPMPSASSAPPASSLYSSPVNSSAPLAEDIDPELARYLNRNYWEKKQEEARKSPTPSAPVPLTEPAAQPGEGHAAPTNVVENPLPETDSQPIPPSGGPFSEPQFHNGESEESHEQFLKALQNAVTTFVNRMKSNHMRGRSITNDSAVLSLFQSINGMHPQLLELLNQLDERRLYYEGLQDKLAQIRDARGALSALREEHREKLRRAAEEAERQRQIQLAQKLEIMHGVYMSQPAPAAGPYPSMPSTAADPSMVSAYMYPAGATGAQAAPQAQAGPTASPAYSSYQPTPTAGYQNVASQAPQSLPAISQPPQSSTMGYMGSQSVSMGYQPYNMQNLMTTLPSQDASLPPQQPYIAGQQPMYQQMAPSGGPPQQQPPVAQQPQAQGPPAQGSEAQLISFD

Chain of HGS, O14964-1 (O14964 whole entry): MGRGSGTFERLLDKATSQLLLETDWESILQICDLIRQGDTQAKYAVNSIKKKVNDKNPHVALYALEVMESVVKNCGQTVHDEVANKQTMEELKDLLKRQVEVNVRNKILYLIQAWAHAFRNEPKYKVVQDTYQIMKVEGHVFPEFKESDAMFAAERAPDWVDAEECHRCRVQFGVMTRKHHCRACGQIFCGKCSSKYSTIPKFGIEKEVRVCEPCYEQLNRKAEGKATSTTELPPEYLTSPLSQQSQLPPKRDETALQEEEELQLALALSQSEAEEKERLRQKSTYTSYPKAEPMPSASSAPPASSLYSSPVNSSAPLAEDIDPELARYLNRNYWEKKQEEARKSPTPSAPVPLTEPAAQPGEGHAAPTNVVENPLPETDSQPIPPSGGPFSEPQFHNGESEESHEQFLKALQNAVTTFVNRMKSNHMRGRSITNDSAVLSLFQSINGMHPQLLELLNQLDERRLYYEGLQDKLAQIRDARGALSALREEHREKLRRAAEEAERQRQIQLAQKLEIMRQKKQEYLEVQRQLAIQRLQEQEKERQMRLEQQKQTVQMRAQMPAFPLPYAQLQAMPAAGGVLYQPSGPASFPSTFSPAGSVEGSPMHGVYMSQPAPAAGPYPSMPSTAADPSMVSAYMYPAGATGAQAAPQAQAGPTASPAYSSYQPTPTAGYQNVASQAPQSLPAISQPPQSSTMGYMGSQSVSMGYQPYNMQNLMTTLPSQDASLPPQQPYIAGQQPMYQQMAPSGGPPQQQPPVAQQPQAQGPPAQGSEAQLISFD

Variant | effect of a mutation on the interaction (HGS, O14964-1) | effect of a mutation on the interaction (HGS, O14964-2)
MAGAIASRMSFSSLKRKQPKTFTVRIVTMDAEMEFNCEMKWKGKDLFDLVCRTLGLRETWFFGLQYTIKDTVAWLKMDKKVLDHDVSKEEPVTFHFLAKFYPENAEEELVQEITQHLFFLQVKKQILDEKIYCPPEASVLLASYAVQAKYGDYDPSVHKRGFLAQEELLPKRVINLYQMTPEMWEERITAWYAEHRGRARDEAEMEYLKIAQDLEMYGVNYFAIRNKKGTELLLGVDALGLHIYDPENRLTPKISFPWNEIRNISYSDKEFTIKPLDKKIDVFKFNSSKLRVNKLILQLCIGNHDLFMRRRKADSLEVQQMKAQAREEKARKQMERQRLAREKQMREEAERTRDELERRPLQMKEEATMANEALMRSEETADLLAEKAQITEEEAKLLAQKAAEAEQEMQRIKATAIRTEEEKRLMEQKVLEAEVLALKMAEESERRAKEADQLKQDLQEAREAERRAKQKLLEIATKPTYPPMNPIPAPLPPDIPSFNLIGDSLSFDFKDTDMKRLSMEIEKEKVEYMEKSKHLQEQLNELKTEIEALKLKERETALDILHNENSDRGGSSKHNTIKKPQAQGRRPICI [L360P] | decreasing interaction strength | decreasing interaction strength
MAGAIASRMSFSSLKRKQPKTFTVRIVTMDAEMEFNCEMKWKGKDRFDLVCRTLGLRETWFFGLQYTIKDTVAWLKMDKKVLDHDVSKEEPVTFHFLAKFYPENAEEELVQEITQHLFFLQVKKQILDEKIYCPPEASVLLASYAVQAKYGDYDPSVHKRGFLAQEELLPKRVINLYQMTPEMWEERITAWYAEHRGRARDEAEMEYLKIAQDLEMYGVNYFAIRNKKGTELLLGVDALGLHIYDPENRLTPKISFPWNEIRNISYSDKEFTIKPLDKKIDVFKFNSSKLRVNKLILQLCIGNHDLFMRRRKADSLEVQQMKAQAREEKARKQMERQRLAREKQMREEAERTRDELERRLLQMKEEATMANEALMRSEETADLLAEKAQITEEEAKLLAQKAAEAEQEMQRIKATAIRTEEEKRLMEQKVLEAEVLALKMAEESERRAKEADQLKQDLQEAREAERRAKQKLLEIATKPTYPPMNPIPAPLPPDIPSFNLIGDSLSFDFKDTDMKRLSMEIEKEKVEYMEKSKHLQEQLNELKTEIEALKLKERETALDILHNENSDRGGSSKHNTIKKPQAQGRRPICI [L46R] | decreasing interaction strength | decreasing interaction strength
MAGAIASRMSFSSLKRKQPKTFTVRIVTMDAEMEFNCEMKWKGKDLFDLVCRTLGLRETWFFGLQYTIKDTVAWLKMDKKVLDHDVSKEEPVTFHFLAKFYPENAEEELVQEITQHLFFLQVKKQILDEKIYCPPEASVLLASYAVQAKYGDYDPSVHKRGFLAQEELLPKRVINLYQMTPEMWEERITAWYAEHRGRARDEAEMEYLKIAQDLEMYGVNYFAIRNKKGTELLLGVDALGLHIYDPENRLTPKISFPWNEIRNISYSDKEFTIKPLDKKIDVFKFNSSKLRVNKLILQLCIGNHDLFMRRRKADSLEVQQMKAQAREEKARKQMERQRLAREKQMREEAERTRDELERRLLQMKEEATMANEALMRSEETADLLAEKAQITEEEAKLLAQKAAEAEQEMQRIKATAIRTEEEKRLMEQKVLEAEVLALKMAEESERRAKEADQLKQDLQEAREAERRAKQKLLEIATKPTYPPMNPIPAPLPPDIPSFNLIGDSLSFDFKDTDMKRLSMEIEKEKVEYMEKSKHLQEPLNELKTEIEALKLKERETALDILHNENSDRGGSSKHNTIKKPQAQGRRPICI [Q538P] | decreasing interaction strength | decreasing interaction strength
MAGAIASRMSFSSLKRKQPKTFTVRIVTMDAEMEFNCEMKWKGKDLFDLVCRTLGLRETWFFGLQYTIKDTVAWLKMDKKVLDHDVSKEEPVTFHFLAKFYPENAEEELVQEITQHLFFLQVKKQILDEKIYCPPEASVLLASYAVQAKYGDYDPSVHKRGFLAQEELLPKRVINLYQMTPEMWEERITAWYAEHRGRARDEAEMEYLKIAQDLEMYGVNYFAIRNKKGTELLLGVDALGLHIYDPENRLTPKISFPWNEIRNISYSDKEFTIKPLDKKIDVFKFNSSKLRVNKLILQLCIGNHDLFMRRRKADSLEVQQMKAQAREEKARKQMERQRLAREKQMREEAERTRDELERRLLQMKEEATMANEALMRSEETADLLAEKAQITEEEAKLLAQKAAEAEQEMQRIKATAIRTEEEKRLMEQKVLEAEVLALKMAEESERRAKEADQLKQDLQEAREAERRAKQKLLEIATKPTYPPMNPIPAPLPPDIPSFNLIGDSLSFDFKDTDMKRLSMEIEKEKVEYMEKSKHPQEQLNELKTEIEALKLKERETALDILHNENSDRGGSSKHNTIKKPQAQGRRPICI [L535P] | decreasing interaction strength | decreasing interaction strength
